{"source": "patent US20040081659A1", "about": "“Conjugates useful in the treatment of prostate cancer” (Merck & Co., Inc., priority 1997, published 2004)", "key": {"[1]": {"target": "T1, enzymatically active free PSA (York PSA) (Homo sapiens, UniProt P07288)", "T1 construct": "50% cleavage of the noted. oligopeptide-cytotoxic agent conjugates with enzymatically active free PSA were then calculated; purchased York", "T1 sequence (P07288 25-261)": "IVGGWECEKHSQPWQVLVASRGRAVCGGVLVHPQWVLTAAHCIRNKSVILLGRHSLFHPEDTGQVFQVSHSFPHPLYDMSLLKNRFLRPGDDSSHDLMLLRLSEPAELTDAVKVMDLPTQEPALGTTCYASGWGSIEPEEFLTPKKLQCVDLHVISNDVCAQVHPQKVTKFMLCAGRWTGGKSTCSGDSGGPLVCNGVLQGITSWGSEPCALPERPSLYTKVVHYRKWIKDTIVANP", "experiment": "Recognition/cleavage of oligopeptide-vinca drug conjugates by free PSA (HPLC)", "format": "biochemical", "settings": "for Time to 50% Substrate Cleavage by York PSA: conjugate to PSA molar ratio 100 to 1, pH7.4 buffer", "procedure": "The conjugates prepared as described in Example 3 were individually dissolved in PSA digestion buffer (50 mM tris(hydroxymethyl)-aminomethane pH7.4, 140 mM NaCl) and the solution added to PSA at a molar ration of 100 to 1. Alternatively, the PSA digestion buffer utilized is 50 mM tris(hydroxymethyl)-aminomethane pH7.4, 140 mM NaCl. The reaction was quenched after various reaction times by the addition of trifluoroacetic acid (TFA) to a final 1% (volume/volume). Alternatively the reaction is quenched with 10 mM ZnCl2. The quenched reaction was analyzed by HPLC on a reversed-phase C18 column using an aqueous 0.1 % TFA/acetonitrile gradient. The amount of time (in minutes) required for 50% cleavage of the noted. oligopeptide-cytotoxic agent conjugates with enzymatically active free PSA were then calculated."}, "[2]": {"target": "T1, enzymatically active free PSA (York PSA)", "experiment": "Recognition/cleavage of oligopeptide-vinca drug conjugates by free PSA (HPLC)", "format": "biochemical"}, "[3]": {"tested_on": "LNCap prostate tumor cells", "experiment": "In vitro cytotoxicity, Alamar Blue assay, LNCaP cells", "format": "cell-based", "settings": "read-out: LNCaP Cell Kill in 72 HRS EC 50", "procedure": "(§1) Specifically, cell cultures of LNCap prostate tumor cells, Colo320DM cells (designated C320) or T47D cells in 96 well plates was diluted with medium containing various concentrations of a given conjugate (final plate well volume of 200 μl). […] The cells were incubated for 3 days at 37° C., 20 μl of Alamar Blue is added to the assay well. The cells were further incubated and the assay plates were read on a EL-310 ELISA reader at the dual wavelengths of 570 and 600 nm. at 4 and 7 hours after addition of Alamar Blue. Relative percentage viability at the various concentration of conjugate tested was then calculated versus control (no conjugate) cultures and an EC50 was determined. Unless otherwise indicated, the acetate salt of the conjugate was tested."}, "Colo320DM cells": {"tested_on": "Colo320DM cells", "experiment": "In vitro cytotoxicity, Alamar Blue assay, Colo320DM control cells (do not express free PSA)", "format": "cell-based", "settings": "72 HRS, read-out: Colo320DM cell kill EC 50 (in parentheses)", "procedure": "as §1"}}, "note": "“And” between values parts separate entries of the source, which are not always exact repeats. Equal values may be shown once. Read-outs that look alike come from different tables or passages of the source.", "data": [{"molecule": "4-O-(Ac-3-Pal-SSChgQ(dS)-P)-dAc-VIN (XSSXQXP; D-residues; non-natural residues)", "values": [{"measurement": "Substrate cleavage by York PSA at 3 HOURS", "setting": "[1]; 3 HOURS", "value": 3, "unit": "HOURS = 0%"}]}, {"molecule": "4-O-(Ac-SSChgQ-SS-P)-dAc-VIN (XSXQSSP; non-natural residues)", "values": [{"measurement": "Time to 50% Substrate Cleavage by York PSA", "setting": "[1]", "value": 15, "unit": "min"}]}, {"molecule": "4-O-[(2-OH)Ac-SChgQSS-Sar]-dAc-VIN (XXQSSX; N-methyl; non-natural residues)", "values": [{"measurement": "Substrate cleavage by York PSA at 1 HOUR", "setting": "[1]", "value": 1, "unit": "HOUR = 4%"}]}, {"molecule": "4-O-[Ac-4-trans-L-HypSSChgQ-(dS)SP]-dAc-VIN", "values": [{"measurement": "Time to 50% Substrate Cleavage by York PSA, 10 X ENZ", "setting": "[2]", "value": "6 HOURS (10 X"}]}, {"molecule": "4-O-[Ac-SChgQS-Aib-P]-dAc-VIN", "values": [{"measurement": "Substrate cleavage by York PSA at 1 HOUR", "setting": "[1]", "value": 1, "unit": "HOUR = 8%"}]}, {"molecule": "4-O-[Ac-SChgQSS-Aib-P]-dAc-VIN", "values": [{"measurement": "Time to 50% Substrate Cleavage by York PSA", "setting": "[1]", "value": "15 min and 23 min"}]}, {"molecule": "4-O-[Ac-SChgQSS-Pip]-dAc-VIN", "values": [{"measurement": "Time to 50% Substrate Cleavage by York PSA", "setting": "[1]", "value": 15, "unit": "min"}]}, {"molecule": "4-O-[Ac-SSChgQ-S(dS)-4-trans-L-Hyp]-dAc-VIN", "values": [{"measurement": "Substrate cleavage by York PSA at 1 HOUR", "setting": "[1]", "value": 1, "unit": "HOUR = 14%"}]}, {"molecule": "CC[C@]1(O)C[C@H]2CN(CCc3c([nH]c4ccccc34)[C@@](C(=O)OC)(c3cc4c(cc3OC)N(C)[C@H]3[C@@](O)(C(=O)OC)[C@H](OC(=O)CNC)[C@]5(CC)C=CCN6CC[C@]43[C@@H]65)C2)C1", "note": "[4-O-sarcosyl-(dAc)-VIN]", "values": [{"measurement": "EC50", "setting": "[3]; 72 HRS", "value": 1300, "unit": "nM"}, {"measurement": "EC50", "setting": "Colo320DM cells", "value": 1800, "unit": "nM"}]}, {"molecule": "CCC1(O)CC2CN(CCc3c([nH]c4ccccc34)C(C(=O)OC)(c3cc4c(cc3OC)N(C)C3C(O)(C(=O)OC)C(OC(=O)C5CC(O)CN5)C5(CC)C=CCN6CCC43C65)C2)C1", "note": "[(4-O-4-trans-L-Hyp)-dAc-VIN]", "values": [{"measurement": "EC50", "setting": "[3]; 72 HRS", "value": 600, "unit": "nM"}, {"measurement": "EC50", "setting": "Colo320DM cells", "value": 1100, "unit": "nM"}]}, {"molecule": "CC[C@]1(O)C[C@@H]2CN(CCc3c([nH]c4ccccc34)[C@@](C(=O)OC)(c3cc4c(cc3OC)N(C)[C@H]3[C@@](O)(C(=O)OC)[C@H](OC(C)=O)[C@]5(CC)C=CCN6CC[C@]43[C@@H]65)C2)C1", "note": "[VINBLASTINE, reference compound]", "values": [{"measurement": "EC50", "setting": "[3]; Homo sapiens, LNCaP, 72 h", "value": 500, "unit": "nM"}, {"measurement": "EC50", "setting": "Colo320DM cells; Homo sapiens, COLO 320DM", "value": 500, "unit": "nM"}]}, {"molecule": "(4-O)-Ac-(4-trans-L-Hyp)SSChgQ-SL-(dAc)-VIN (XSSXQSL; non-natural residues)", "values": [{"measurement": "Time to 50% Substrate Cleavage by York PSA", "setting": "[1]", "value": 35, "unit": "min"}]}, {"molecule": "Ac-AbuSSChgQ-(dS)-(4-O-P)-dAc-VIN", "values": [{"measurement": "Substrate cleavage by York PSA at 1 HOUR", "setting": "[1]", "value": 1, "unit": "HOUR = 0%"}]}]}
